Measurements: patent US20180016312A1 (Pieris, published 2018)

Assays:
[1] = target: T1, hNGAL lipocalin mutein SEQ ID NO: 1; assay: solution competition ELISA; 0.1 nM SEQ ID NO: 1 with varied soluble ligand, free mutein captured on immobilised hAng-2
T1 construct: Mutein of mature hNGAL
T1 chain: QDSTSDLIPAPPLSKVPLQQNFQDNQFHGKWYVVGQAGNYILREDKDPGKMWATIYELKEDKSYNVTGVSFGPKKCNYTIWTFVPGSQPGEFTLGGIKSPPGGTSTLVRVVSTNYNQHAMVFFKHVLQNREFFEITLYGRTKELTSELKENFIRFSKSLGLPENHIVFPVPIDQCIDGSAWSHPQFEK
Experimental: (§1) In the following detailed experimental protocol, incubation and washing steps were performed as described above in the competition ELISA protocol (see Example 5).
(§2) The residual supernatants were discarded and 20 μl HRP-labeled anti-lipocalin-mutein antibody was added at a predetermined optimal concentration in PBS-T/BSA and incubated for 1 h at RT. […] After washing, 20 μl fluorogenic HRP substrate (Quantablue, Pierce) was added to each well, and the reaction was allowed to proceed for 60 minutes. The fluorescence intensity of every well on the plate was read using a Genios Plus Microplate reader (Tecan).

[2] = target: T2, hNGAL lipocalin mutein SEQ ID NO: 11; assay: solution competition ELISA; 0.1 nM SEQ ID NO: 11 with varied soluble ligand, free mutein captured on immobilised hAng-2
T2 construct: Mutein of mature hNGAL; Biotinylated with NHS-PEG4-Biotin for the SPR assay
T2 chain: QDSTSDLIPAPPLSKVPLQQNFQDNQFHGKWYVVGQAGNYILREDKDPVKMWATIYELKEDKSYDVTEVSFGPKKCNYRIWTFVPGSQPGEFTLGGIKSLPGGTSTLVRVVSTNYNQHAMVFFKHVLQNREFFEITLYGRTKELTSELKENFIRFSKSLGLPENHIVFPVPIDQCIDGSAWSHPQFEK
Experimental: as §1, §2

[3] = target: T3, hNGAL lipocalin mutein SEQ ID NO: 3; assay: solution competition ELISA; 0.1 nM SEQ ID NO: 3 with varied soluble ligand, free mutein captured on immobilised hAng-2
T3 construct: Mutein of mature hNGAL
T3 chain: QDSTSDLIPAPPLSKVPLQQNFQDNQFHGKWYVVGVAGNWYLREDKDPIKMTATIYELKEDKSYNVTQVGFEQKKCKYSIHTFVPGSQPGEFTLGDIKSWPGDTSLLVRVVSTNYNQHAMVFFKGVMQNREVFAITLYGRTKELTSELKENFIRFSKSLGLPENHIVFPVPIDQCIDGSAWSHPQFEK
Experimental: as §1, §2

[4] = target: T4, hNGAL lipocalin mutein SEQ ID NO: 9; assay: solution competition ELISA; 0.1 nM SEQ ID NO: 9 with varied soluble ligand, free mutein captured on immobilised hAng-2
T4 construct: Mutein of mature hNGAL; Biotinylated with NHS-PEG4-Biotin for the SPR assay
T4 chain: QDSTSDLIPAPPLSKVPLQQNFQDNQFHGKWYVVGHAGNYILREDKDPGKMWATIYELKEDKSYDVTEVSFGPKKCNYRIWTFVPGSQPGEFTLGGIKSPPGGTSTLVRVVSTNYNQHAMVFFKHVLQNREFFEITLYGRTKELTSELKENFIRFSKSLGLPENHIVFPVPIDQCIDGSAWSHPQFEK
Experimental: as §1, §2

[5] = target: T5, hNGAL lipocalin mutein SEQ ID NO: 8; assay: solution competition ELISA; 0.1 nM SEQ ID NO: 8 with varied soluble ligand, free mutein captured on immobilised hAng-2
T5 construct: Mutein of mature hNGAL; Biotinylated with NHS-PEG4-Biotin for the SPR assay
T5 chain: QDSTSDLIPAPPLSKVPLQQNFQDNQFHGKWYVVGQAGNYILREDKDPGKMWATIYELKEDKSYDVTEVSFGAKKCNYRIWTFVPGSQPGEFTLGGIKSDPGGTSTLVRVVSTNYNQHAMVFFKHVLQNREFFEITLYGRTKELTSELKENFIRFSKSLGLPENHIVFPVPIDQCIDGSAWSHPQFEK
Experimental: as §1, §2

[6] = target: T6, hNGAL lipocalin mutein SEQ ID NO: 7; assay: solution competition ELISA; 0.1 nM SEQ ID NO: 7 with varied soluble ligand, free mutein captured on immobilised hAng-2
T6 construct: Mutein of mature hNGAL; Biotinylated with NHS-PEG4-Biotin for the SPR assay
T6 chain: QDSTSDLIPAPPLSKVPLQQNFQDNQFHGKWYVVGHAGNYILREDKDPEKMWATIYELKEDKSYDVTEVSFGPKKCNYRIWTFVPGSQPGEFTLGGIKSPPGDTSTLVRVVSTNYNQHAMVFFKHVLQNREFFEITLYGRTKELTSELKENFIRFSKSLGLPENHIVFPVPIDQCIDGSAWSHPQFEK
Experimental: as §1, §2

[7] = target: benchmark antibody 1 (SEQ ID NOs: 17/18); assay: solution competition ELISA; 0.1 nM SEQ ID NO: 17/18 with varied soluble ligand, free antibody captured on immobilised hAng-2

B1: mouse angiopoietin-2 (ligand, UniProt O35608 19-496, looked up)
chain: YSNFRKSVDSTGRRQYQVQNGPCSYTFLLPETDSCRSSSSPYMSNAVQRDAPLDYDDSVQRLQVLENILENNTQWLMKLENYIQDNMKKEMVEIQQNVVQNQTAVMIEIGTSLLNQTAAQTRKLTDVEAQVLNQTTRLELQLLQHSISTNKLEKQILDQTSEINKLQNKNSFLEQKVLDMEGKHSEQLQSMKEQKDELQVLVSKQSSVIDELEKKLVTATVNNSLLQKQQHDLMETVNSLLTMMSSPNSKSSVAIRKEEQTTFRDCAEIFKSGLTTSGIYTLTFPNSTEEIKAYCDMDVGGGGWTVIQHREDGSVDFQRTWKEYKEGFGSPLGEYWLGNEFVSQLTGQHRYVLKIQLKDWEGNEAHSLYDHFYLAGEESNYRIHLTGLTGTAGKISSISQPGSDFSTKDSDNDKCICKCSQMLSGGWWFDACGPSNLNGQYYPQKQNTNKFNGIKWYYWKGSGYSLKATTMMIRPADF
notes: Bought recombinant protein; also called mouse Ang-2; mAng-2
B1 was tested. Which IC50 [1] did it give?
Its IC50 is 0.65 nM.

What about the IC50 [2] of the same binder?
The IC50 was 0.05 nM.

And the IC50 [3]?
Its IC50 is 1.8 nM.

And the IC50 [4]?
Its IC50 is 0.11 nM.

What about the IC50 [5] of the same binder?
Its IC50 is 0.08 nM.

And the IC50 [6]?
Its IC50 is 0.05 nM.

What about the IC50 [7] of the same binder?
Its IC50 is 0.07 nM.

B2: human angiopoietin-2 (ligand, UniProt O15123 19-496, looked up)
chain: YNNFRKSMDSIGKKQYQVQHGSCSYTFLLPEMDNCRSSSSPYVSNAVQRDAPLEYDDSVQRLQVLENIMENNTQWLMKLENYIQDNMKKEMVEIQQNAVQNQTAVMIEIGTNLLNQTAEQTRKLTDVEAQVLNQTTRLELQLLEHSLSTNKLEKQILDQTSEINKLQDKNSFLEKKVLAMEDKHIIQLQSIKEEKDQLQVLVSKQNSIIEELEKKIVTATVNNSVLQKQQHDLMETVNNLLTMMSTSNSAKDPTVAKEEQISFRDCAEVFKSGHTTNGIYTLTFPNSTEEIKAYCDMEAGGGGWTIIQRREDGSVDFQRTWKEYKVGFGNPSGEYWLGNEFVSQLTNQQRYVLKIHLKDWEGNEAYSLYEHFYLSSEELNYRIHLKGLTGTAGKISSISQPGNDFSTKDGDNDKCICKCSQMLTGGWWFDACGPSNLNGMYYPQRQNTNKFNGIKWYYWKGSGYSLKATTMMIRPADF
notes: Bought recombinant protein with a His tag (detected by anti-HIS-tag antibody); also called human Ang-2; hAng-2
B2 was tested. Which IC50 [1] did it give?
The IC50 was 2.5 nM.

And the IC50 [2]?
The IC50 was 0.49 nM.

And the IC50 [3]?
Its IC50 is 1.4 nM.

And the IC50 [4]?
The IC50 was 0.76 nM.

And the IC50 [5]?
Its IC50 is 0.5 nM.

And the IC50 [6]?
Its IC50 is 0.41 nM.

What about the IC50 [7] of the same binder?
The IC50 was 0.6 nM.

B3: human angiopoietin-1 (ligand, UniProt Q15389 20-498, looked up)
chain: SNQRRSPENSGRRYNRIQHGQCAYTFILPEHDGNCRESTTDQYNTNALQRDAPHVEPDFSSQKLQHLEHVMENYTQWLQKLENYIVENMKSEMAQIQQNAVQNHTATMLEIGTSLLSQTAEQTRKLTDVETQVLNQTSRLEIQLLENSLSTYKLEKQLLQQTNEILKIHEKNSLLEHKILEMEGKHKEELDTLKEEKENLQGLVTRQTYIIQELEKQLNRATTNNSVLQKQQLELMDTVHNLVNLCTKEGVLLKGGKREEEKPFRDCADVYQAGFNKSGIYTIYINNMPEPKKVFCNMDVNGGGWTVIQHREDGSLDFQRGWKEYKMGFGNPSGEYWLGNEFIFAITSQRQYMLRIELMDWEGNRAYSQYDRFHIGNEKQNYRLYLKGHTGTAGKQSSLILHGADFSTKDADNDNCMCKCALMLTGGWWFDACGPSNLNGMFYTAGQNHGKLNGIKWHYFKGPSYSLRSTTMMIRPLDF
notes: Bought recombinant protein; also called human Ang-1; hAng-1
Which IC50 [2] does the source give for B3 here?
The IC50 was 0.89 nM.

What about the IC50 [4] of the same binder?
The IC50 was 1.9 nM.

And the IC50 [5]?
The IC50 was 9.3 nM.

What about the IC50 [6] of the same binder?
The IC50 was 0.47 nM.

What about the IC50 [7] of the same binder?
Its IC50 is 26 nM.
